The record followed here is article PMC4670574 (2016).

Square brackets hold non-standard residues; d marks the D form. Ends that are not written are not given here. pT = C[C@@H](OP(=O)(O)O)[C@H](N)C(=O)O Some results are limits rather than exact numbers.

In general, Kd refers to the free concentration of one partner at which half of the binding sites on the other are occupied at equilibrium, for simple one-to-one binding.

The assay addresses T1, pCdc25C phosphopeptide (Homo sapiens).
T1 chain: EQPL[pT]PVTDL
The assay can be described thus: ITC.

B1: Pin1 isolated PPIase domain PPIase domain (protein)
chain: PARVRCSHLLVKHSQSRRPSSWRQEKITRTKEEALELINGYIQKIKSGEEDFESLASQFSDCSSAKARGDLGAFSRGQMQKPFEDASFALRTGEMSGPVFTDSGIHIILRTE
With B1, the Kd is more than 1000 µM.
